In assay [1] the test system is caspase-3. Briefly: Caspase-3 activity in human corneal epithelial cells treated with TNF. It is filed as cell-based. To be noted: FIG. 11. The procedure: FIG. 11 graphically illustrates the ability of lacritin and fragments of lacritin to inhibit the ability of tumor necrosis factor (TNF) to regulate caspase-3 activity in human corneal epithelial cells. Go6976 is an inhibitor of protein kinase C. The ordinate represents relative fluorescence units. White bars indicate 3 hours and diagonally-hatched bars indicate 6 hours.
Lacritin-induced proliferation and calcium signaling was studied in the human corneal epithelial (HCE) cell line. HCE cells were grown at 37° C. in DMEM F/12 supplemented with 10% FBS and 50 μg/ml gentamicin. Each experiment was done in a dose- and time-dependent manner using TNF-α (5-20 ng/ml) and lacritin (1-10 nM). Cell viability was measured spectrophotometrically at an absorbance of 570 nm using the MTT assay. Caspase-8 activity was detected fluorometrically by measuring cleavage of the fluorogenic substrate IETD-pNA at an excitation wavelength of 405 nm. Lacritin-induced cell proliferation was studied by H3-thymidine incorporation and via fluorescence-based detection of PKC, PLC and cAMP. Calcium signaling was detected by confocal microscopy of Fluo-4 loaded cells.

Assay [2] addresses T1, syndecan-1 (Homo sapiens, UniProt P18827).
T1 construct: expressed in transfected cells; host or cells: HEK293 (syndecan-1); E. coli ER2566 (lacritin-intein)
T1 sequence (P18827 23-310): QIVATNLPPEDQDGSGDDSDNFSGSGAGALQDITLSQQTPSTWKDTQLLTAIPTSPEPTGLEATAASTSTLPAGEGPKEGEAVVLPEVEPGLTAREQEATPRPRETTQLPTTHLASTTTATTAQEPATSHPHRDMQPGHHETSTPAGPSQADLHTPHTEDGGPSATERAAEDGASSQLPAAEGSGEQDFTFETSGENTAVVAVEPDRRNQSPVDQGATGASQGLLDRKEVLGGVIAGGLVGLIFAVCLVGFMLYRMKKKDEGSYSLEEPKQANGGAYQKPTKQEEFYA
In words: Pull down binding assay with lysates of transfected cells. The source says: Biotinylated cell surface proteins were applied to lacritin affinity columns. After washing extensively in physiological salt-containing buffer, bound protein was eluted with 1 M NaCl, and identified with avidin-peroxidase using an ECL blot method. In controls, columns lacking lacritin were used. […] 293T cells stably transfected with human syndecan-2 or −4 were kindly provided by Dr. Atsushi Utani (Chiba University). A series of lacritin C-terminal and N-terminal deletion mutants were generated. Pull down binding assays involved incubation of intein-tagged lacritin or intein deletion mutants with lysates of untransfected or transfected cells followed by precipitation and SDS PAGE. Immunolocalization of syndecan-1 in human lacrimal glands was performed using anti-human syndecan-1 antibody (CD138).

Assay [3] deals with melanoma (SK-MEL) cells. In words: 3H-thymidine uptake mitogenesis assay. The class given is cell-based, human. The procedure:
(§1) For phosphotyrosine blotting and mitogenesis assays, cells in serum-containing media were seeded overnight in 24-well plates at a density of 0.5×10^5 cells/mm^2 corresponding to 20-30% confluency after cell attachment, incubated in serum-free media without supplements for 24 h (phosphotyrosine) or washed with serum-free media without supplements three times (mitogenesis) and incubated with lacritin (1-1000 nM), or positive controls EGF (1.6 nM) and 10% fetal bovine serum, or negative controls bovine serum albumin or no additive in serum-free media without supplements for the indicated times (phosphotyrosine) or 30 h (mitogenesis). For phosphotyrosine assays, cells were extracted in 1% NP40 containing sodium vanadate (2 mg/ml), DTT (5 mg/ml), protease inhibitors, 50 mM HEPES, 100 mM NaCl, and 2 mM EDTA; then separated by 10% SDS PAGE, transferred and blotted. The following antibodies (Cell Signaling Technology, Beverly Mass.) were tested: antiphosphotyrosine antibody (P-Tyr-100), anti-phospho-PKC αβII, anti-PKCα, anti-phospho-PKCδ, anti-phospho-PKC (pan), anti-p44/42 MAPK, anti-phospho-Raf, anti-phospho-SAPK/JNK, anti-phospho-p38 Map kinase, anti-phospho-Raf, anti-phospho-Akt, anti-phospho-CaMKII, anti-phospho-MARCKS, or anti-tubulin (loading control). After washing, bound antibodies were detected with peroxidase-labeled secondary antibody and ECL. With the exception of at least nine proteins in the P-Tyr-100 blot (FIG. 1), none of the effectors tested above appeared to be phospho-activated during lacritin signaling (not shown). For mitogenesis (Hussaini et al., '00), [^3H]-thymidine (2 mCi/ml) was added for the next 6 h. Incorporation was stopped with ice-cold phosphate buffered saline and followed by addition of cold and then room temperature trichloracetic acid (10%) for 10 min each, washing of cells with phosphate buffered saline, solubilization with 1 N sodium hydroxide, neutralization with 1 N hydrochloric acid, addition of scintillation fluid and then quantitation in a scintillation counter. To deplete PKCα in HSG cells, a pool of four PKCα-specific siRNAs (100 nM) were transfected via LipofectAMINE 2000 in Opti-MEMI Reduced Serum Medium (Invitrogen, Grand Island N.Y.) without serum and antibiotics according to manufacturer's instructions. Each of the four siRNAs was also individually transfected. In negative controls, cells were transfected with a pool of four lamin-specific siRNAs (Upstate LLC, Charlottesville Va.; Dharmacon Inc, Lafayette Colo.). Seventy-two hours post-transfection, mitogenesis was assessed by co-addition of 10 […] lacritin and [^3H]-thymidine (2 mCi/ml) (Amersham, Piscataway N.J.) for 24 hrs. PKCα depletion was confirmed by Western blotting.

Assay [4] relates to foreskin fibroblast (HS68) cells. Briefly: 3H-thymidine uptake mitogenesis assay. The class given is cell-based, human. As to the method: as §1
For assay [5], the system named is non-invasive breast carcinoma (MCF7) cells. In words: 3H-thymidine uptake mitogenesis assay. The class given is cell-based, human. The procedure: as §1
Assay [6] relates to melanoma (WM-164) cells. Briefly: 3H-thymidine uptake mitogenesis assay. The class given is cell-based, human. The procedure: as §1
The subject of assay [7] is cervical (HeLa) cells. Briefly: 3H-thymidine uptake mitogenesis assay. It is filed as cell-based, human. As to the method: as §1
The subject of assay [8] is fibrosarcoma (HT1080) cells. Briefly: 3H-thymidine uptake mitogenesis assay. The class given is cell-based, human. As to the method:
as §1

For assay [9], the system named is embryonic kidney (HEK) cells. Briefly: 3H-thymidine uptake mitogenesis assay. The class given is cell-based, human. The procedure: as §1
The test system of assay [10] is erythroleukemia (K-562) cells. In words: 3H-thymidine uptake mitogenesis assay. It is filed as cell-based, human. As to the method:
as §1

The text below walks through data of patent US7648964B2, “Use of lacritin in promoting ocular cell survival” (University of Virginia Patent Foundation, priority 2004, dated 2010).

Take `Cn1c2ccccc2c2c3c(c4c5ccccc5n(CCC#N)c4c21)CNC3=O` [Go 6976]: the “protection from cell death by TNF (caspase-3 activity)” value in assay [1] is reported as “do not protect”.

B1: lacritin: recombinant human lacritin from E. coli; mature 119 residue fragment (SEQ ID NO:10) of native lacritin SEQ ID NO:4 (protein, listed as Homo sapiens)
chain: EDASSDSTGADPAQEAGTSKPNEEISGPAEPASPPETTTTAQETSAAAVQGTAKVTSSRQELNPLKSIVEKSILLTEQALAKAGKGMHGGVPGGKQFIENGSEFAQKLLKKFSLLKPWA
For the molecule B1, the “binding to mammalian syndecan-1” value in [2] is “bound”. The mitogenesis result in assay [3], in [4], in assay [5], in [6], in assay [7] and in [8] was “not mitogenic” each time. Besides, the mitogenesis result is reported as “mitogenic” in [9] and “not mitogenic” in assay [10].
